This passage reports Ka results from article PMC4725879.

For data set [1], the system named is LacI (lac repressor), wild type (Escherichia coli). Put plainly: EMSA. As to conditions: no IPTG; 5 mM Mg2+; EMSA: 20 mM Tris-HCl pH 8.0, 200 mM NaCl, 0.5 mM EDTA, 1 mM DTT, 5 mM MgCl2, 5% glycerol, 0.1 nM DNA, 22 C, 60 min; nicking assays at 37 C. Background: Mobility shift assays separate free from complexed probe on a gel.
Data set [2] deals with LacI-Gly60+3 (Escherichia coli). The data set is described as follows: EMSA. As to conditions: 5 mM Mg2+; EMSA: 20 mM Tris-HCl pH 8.0, 200 mM NaCl, 0.5 mM EDTA, 1 mM DTT, 5 mM MgCl2, 5% glycerol, 0.1 nM DNA, 22 C, 60 min; nicking assays at 37 C.

On to lac O1 fragment, for which the Ka in data set [1] was 1.2e+10 M⁻¹; in data set [2], 1e+09 M⁻¹.

For the substance lac O2 fragment, in data set [2], the Ka stood at 6.2e+08 M⁻¹.

For the substance lac Os fragment, the Ka in data set [2] was determined as 2.4e+09 M⁻¹.
